Measured values taken from PMC8193172.

Molecular target: Hydrophobin-BMP2 fusion protein (UniProt P12643)
Test: SDS-PAGE and Western blot

Hydrophobin-BMP2 fusion protein (from UniProt P12643 283-396)
stoichiometry N: 2
